Experimental data published in patent US20220034872.

System: GST fusion recombinant OCT4 protein

Substance: GST fusion recombinant CSNK2A1
- in vitro kinase assay, OCT4 phosphorylation read by SDS-PAGE and western blotting: in the presence of OCT4 and CSNK2A1, OCT4 phosphorylation was recognized by a phosphorylated antibody
